Source: publication PMC7214467 (Nature Communications, 2020)

Tests used:
[1] = biological target: HLA-A2/NY-ESO-1 peptide complex on tumor cells (Homo sapiens, HLA-A2 (A*02:01 assumed), …); assay: cell-based or functional assay
CD3 on Jurkat cells = biological target: T1, CD3 on Jurkat cells (Homo sapiens, endogenous on Jurkat …, UniProt P07766); assay: flow cytometry on cells; Jurkat cells; titrated from 30 μg/mL in 3-fold dilutions, on ice; detected with PE goat anti-human lambda; details: one partner purified
T1 construct: CD3 of the T cell receptor complex on Jurkat cells; On cells CD3ε stands with the other CD3 chains and the TCR; also called CD3+ Jurkat cells; source: endogenous, on Jurkat cells (ATCC TIB-152)
T1 sequence (P07766 23-207): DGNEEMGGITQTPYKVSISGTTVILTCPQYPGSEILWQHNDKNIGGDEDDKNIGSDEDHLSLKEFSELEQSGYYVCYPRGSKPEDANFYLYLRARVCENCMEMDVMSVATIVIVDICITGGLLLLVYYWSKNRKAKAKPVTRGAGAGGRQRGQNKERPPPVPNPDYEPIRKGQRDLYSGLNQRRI

Binder	T cell redirected lysis of peptide-pulsed Saos-2 cells by primary T cells, 48 h, EC50 [1] [nM]	binding result (CD3 on Jurkat cells)	T cell redirected lysis of peptide-pulsed 624.38 cells by primary T cells, 48 h, EC50 [1] [nM]
TCR/CD3 IgG BsAb with the 1G4_122 NY-ESO-1 TCR (stabilized Cα/Cβ subunit) and the chimeric SP-34 anti-CD3 arm (bispecific antibody, V domains shown, soluble 1G4_122 TCR α chain; Cα with the stabilizing mutations as in m1; soluble 1G4_122 TCR β chain; Cβ with the stabilizing mutations as in m2; detected with goat anti-human lambda; Two heavy chains joined by the 7.8.60 Fc heterodimer design; also called IgG-like BsAb; TCR/CD3 bifunctional; source: CHO K1SV KO, transient, secreted, purified (mAbSure resin, preparative size exclusion); copies: + …) VH: EVQLVESGGGLVQPKGSLKLSCAASGFTFNTYAMNWVRQAPGKGLEWVARIRSKYNNYATYYADSVKDRFTISRDDSQSLLYLQMNNLKTEDTAMYYCVRHGNFGNSYVSWFAYWGQGTLVTVSA VL: QAVVTQESALTTSPGETVTLTCRSSTGAVTTSNYANWVQEKPDHLFTGLIGGTNKRAPGVPARFSGSLIGDKAALTITGAQTEDEAIYFCALWYSNLWVFGGGTKLTVL	~1	binds	–
TCR/CD3 Tandem BsAb with the stabilized 1G4_122 NY-ESO-1 TCR and the chimeric SP-34 anti-CD3 Fab (bispecific antibody, V domains shown, soluble 1G4_122 TCR α chain; Cα with the stabilizing mutations as in m1; soluble 1G4_122 TCR β chain; Cβ with the stabilizing mutations as in m2; detected with goat anti-human lambda; also called tandem Fab BsAb; tandem Fab; copies: + + +) VH: EVQLVESGGGLVQPKGSLKLSCAASGFTFNTYAMNWVRQAPGKGLEWVARIRSKYNNYATYYADSVKDRFTISRDDSQSLLYLQMNNLKTEDTAMYYCVRHGNFGNSYVSWFAYWGQGTLVTVSA VL: QAVVTQESALTTSPGETVTLTCRSSTGAVTTSNYANWVQEKPDHLFTGLIGGTNKRAPGVPARFSGSLIGDKAALTITGAQTEDEAIYFCALWYSNLWVFGGGTKLTVL	~0.03	binds	~0.1
